From US20250345423A1 (IMUNEXUS THERAPEUTICS, published 2025)

Experiments:
[1] = biological target: T1, human recombinant Sclerostin (rhSOST, R&D systems 1406-ST-025/CF) (human, UniProt Q9BQB4 24-213); test: in-cell ELISA on transfected HEK293 cells, anti-SOST primary antibody, versus mock transfection
T1 sequence (looked up): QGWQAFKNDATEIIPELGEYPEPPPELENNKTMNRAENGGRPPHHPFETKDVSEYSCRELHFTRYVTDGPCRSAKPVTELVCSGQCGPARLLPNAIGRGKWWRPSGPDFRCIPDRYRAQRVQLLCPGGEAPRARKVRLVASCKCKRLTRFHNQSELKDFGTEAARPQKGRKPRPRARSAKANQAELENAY
Description: The remainder of the protocol was identical for both cell types. One day before transfection, cells were plated on 96-well microtiter plates that had previously been coated with Poly-D-Lysine (PDL, Gibco, Cat. No. A38904-01) according to the manufacturer's instructions. The ideal cell density for subsequent transfection and in-cell ELISA was empirically determined to be 10,000 cells per well at time of seeding. The day after plating, cells were transfected using the Lipofectamine 3000 transfection kit (Invitrogen, Cat. No. L3000-008). The ideal amount of DNA and Lipofectamine per well was empirically determined to be 100 ng (HEK cells) or 200 ng (CHO cells) of DNA and 0.15 μl of Lipofectamine 3000. Transfections were performed according to the manufacturer's instructions.
All in-cell ELISA experiments were carried out in 96-well microtiter plates. […]

[2] = biological target: T2, CD80 expressed on Raji cells (UniProt P33681 35-288); test: cell-to-cell binding: Raji cells on transfected bMSCs (summary of Example 2)
T2 construct: whole, on cells; also called Raji cells expressing CD80; B7-1 on Raji cells
T2 sequence (looked up): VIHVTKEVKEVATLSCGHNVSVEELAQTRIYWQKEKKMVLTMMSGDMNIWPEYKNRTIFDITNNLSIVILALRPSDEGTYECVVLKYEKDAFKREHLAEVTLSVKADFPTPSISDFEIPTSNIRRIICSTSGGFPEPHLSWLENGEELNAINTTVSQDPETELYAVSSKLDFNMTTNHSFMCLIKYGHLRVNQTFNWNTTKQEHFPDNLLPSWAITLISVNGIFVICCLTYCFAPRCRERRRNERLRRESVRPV
Description: The required number of Raji cells (100,000 cells for each assay well) were centrifuged and resuspended in an appropriate volume of MSCBM (100 μl/100,000 cells), and the cell suspension was added to the wells containing bMSCs. Plates were incubated for 1 h at RT before the wells were very carefully washed 3× with D-PBS. In-cell ELISA assays were carried out two days after transfection with CTLA-4 BD plasmid DNA. The cell supernatant was aspirated, cells were washed 3× with 300 μl D-PBS (137 mM NaCl, 8.1 mM Na₂HPO₄, 2.68 mM KCl, 1.47 mM KH₂PO₄, 0.9 mM CaCl₂), 0.5 mM MgCl₂), and then fixed by adding 50 μl of a formaldehyde solution (4% in PBS, for example Santa Cruz Biotechnology, Cat. No. SANTS-281692). After 15-20 minutes of incubation at RT, the solution was aspirated and cells were washed 3× with 300 μl D-PBS-T (D-PBS containing 0.05% (w/V) Tween-20). Wells were blocked by incubating with 300 μl of 5% skim milk in D-PBS-T for 1 h at RT. The blocking buffer was aspirated and wells were washed with 3×300 μl D-PBS-T before adding 50 μl of the primary antibody diluted in D-PBS-T (see Table 1 for antibodies and their respective dilutions). […] After 5-15 minutes the reaction was stopped by adding 100 μl 1 M HCl, and absorbance at a wavelength of 450 nm was measured using a micro plate reader. […]

[3] = biological target: T3, human B7-1 (CD80) protein (Acro Biosystems, B71-H5259) (human, UniProt P33681 35-242); test: in-cell ELISA on transfected bMSCs, anti-CD80 primary antibody, versus control transfection
T3 sequence (looked up): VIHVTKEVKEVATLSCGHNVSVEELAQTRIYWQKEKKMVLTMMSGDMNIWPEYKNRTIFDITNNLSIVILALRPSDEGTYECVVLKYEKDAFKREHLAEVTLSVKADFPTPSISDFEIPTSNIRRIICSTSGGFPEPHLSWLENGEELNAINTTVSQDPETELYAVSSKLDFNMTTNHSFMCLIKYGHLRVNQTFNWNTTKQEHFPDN
Description: Cells were plated on a 96-well plate at a density of 10,000 cells per well. The in-cell ELISA was performed the following day.
All in-cell ELISA experiments were carried out in 96-well microtiter plates. For assays in which the primary antibody was directed against the ligand of the CTLA-4 binding domain, the supernatant of cells expressing the CTLA-4 BD was aspirated, replaced with medium containing the ligand (rhSOST (R&D systems 1406-ST-025/CF) or B7-1/CD80 protein (Acro Biosystems, B71-H5259) at varying concentrations, and incubated for 1 h at RT. For assays in which binding of B-lymphocytes to cells expressing the CTLA-4 binding domain was to be assessed, cells from a lymphoblast-like cell line (Raji cells) were used. The required number of Raji cells (100,000 cells for each assay well) were centrifuged and resuspended in an appropriate volume of MSCBM (100 μl/100,000 cells), and the cell suspension was added to the wells containing bMSCs. Plates were incubated for 1 h at RT before the wells were very carefully washed 3× with D-PBS. In-cell ELISA assays were carried out two days after transfection with CTLA-4 BD plasmid DNA. […]

B1: BD_SOST (CTLA-4 binding domain directed against human sclerostin), displayed on the cell surface from the display vector (designed binder)
chain: KAMHVAQPAVVLASSRGIASFVCEYTVSWVDMEVRVTVLRQADSQVTEVCAATYWNGRWLTFLDDSICTGTSSGNQVNLTIQGLRAMDTGLYICKVQLDPSWGYYWQGYEGIGNGTQIYVIDPEPSPDSNAGGGGSGGGGSGGGGSAEQKLISEEDLNAVGQDTQEVIVVPHSLPFKVVVISAILALVVLTIISLIILIMLWQKKPR
[1]
  binding result: binds

B2: BD_B7 (CTLA-4 binding domain directed against B7.1 (CD80)), displayed on the cell surface from the display vector (designed binder)
chain: KAMHVAQPAVVLASSRGIASFVCEYASPGKYTEVRVTVLRQADSQVTEVCAATYMTGNELTFLDDSICTGTSSGNQVNLTIQGLRAMDTGLYICKVELMYPPPYYLGIGNGTQIYVIDPEPSPDSNAGGGGSGGGGSGGGGSAEQKLISEEDLNAVGQDTQEVIVVPHSLPFKVVVISAILALVVLTIISLIILIMLWQKKPR
notes: also called CTLA-4 BD directed against B7-1
[2]
  binding result: binds
[3]
  binding result: binds
